Results on 16 sequences are retold here after the nanobody polyreactivity screen of Harvey et al. (2022).

This series in a line: yeast display, Sf9 membrane polyspecificity reagent, FACS + sequencing; frameworks hold sequencing errors. An outline of the steps: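 A nanobody's polyreactivity label depends on the gate it was sorted from. Yeast display cells were stained with 10% biotinylated, detergent-solubilized Sf9 membrane reagent for 1 hour at 4 °C, enriched on streptavidin microbeads and sorted by FACS. The low and high (top ~1%) gates were set on anti-HA fluorescence for expression and streptavidin fluorescence for reagent binding.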
In the case of “RVQLVESGGGLVQAGGSLRLSCAASGSIFRGYAMGWYRQAPGKERGLVAAITSGGSTNYADSVKGRFTISRDNAKNTVYLQMNSLKPEDTAVYYCAKDLALVAPLSDYWGQGTQVTVSS”, the “polyreactivity (PSR sort gate)” value was “low polyreactivity”.
As for “QVQLVESGGGLVQAGGILRLSCAASGSIFKYYAMGWYRQAPGKERELVADISFGGDSTYYADSVKGRFTISRDNAKNTVYLQMNSLIPEDTAVYYCAAARYFWFVEYDYWGQGTQVTVSS”, the entry is “low polyreactivity”; as for “QVQLVESGGGLVQAGGSLRLSCAASGIIFIFYDMGWSRQAPGKERELVATITSGTNTYADSVKGRFTISRDNAKNTVYLQMNSLKPEDTAVYSCAAGFSPASQLDYWGQGTQVTVSS”, “low polyreactivity”; as for “QVQLVESGGCLVQAGGSLRLSCAASGSTFRFYAMGWYRQAPGKERELVATISSSGGTTYYADSVKGRFTISRDNAKNTVYLQMNSLKPEDTAVSYCAKDAFGWGRVYYYRSGYWGHGTQVTVSS”, “high polyreactivity”.
Next, “QVQLVESGGGLVQAGGSLRISCAASGSIFWANAMGWYRQAPWKERELVAAISSSGGRTYYADSVKGRFTISRDNAKNTVYLQMNSLKPEDSAVYDCNKLRLAYYEQGDYWGQGTQVNVSS”: “high polyreactivity”; “QVQLVESGGGLVQAGGSLRLSCAAYGRILRYYAMGWYRQAPGKERELVASITSGGSTYYADSVKGRFTISRDNAKNTVYLQMNSLKPEDTAVYYCAARNIYRVDLSYYAYDYWGQGTQVTVSS”: “high polyreactivity”.
As for “QVQLVESGGGLVQAGGSLRLSCAASGRIFDRNAMGWYRPAPGKERELVAAISRRGGSTYYADSVKGRITISRDNAKNTVYLQMNSLKPEDTAVYYCAARFLYRSVKMDYWGQGTQVTVSS”, the entry is “high polyreactivity”; as for “QVQLVESGGGLVQAGGSLRLSCAASGRTFVRYAMGWYRQAPGKERELVASIRTGGSTNYADSVKGRFTISRDNAKNTVYLQMNSLKPEDTAVYYCAAPRTYRPWGRMDYWGQGTQVTVSS”, “high polyreactivity”; as for “QVQLVESGGGLVQAGGSLRFSCAASGSIFDSYAMGWYRHAPGKERELVAAITWSGGITFYADSVKGRYTISRDNAKNTVYLQMNSLKPEDTAVYYCATARSYVGVGGTFVGLYDYWGQGTQVTVSS”, “low polyreactivity”.
Turning to “QVQLVESGGGLVQAGGSLRLSCAASGSIFRYYAMGWYRPAPGKERELVARISATGASTYYADSVKGRFTISRDNAKNTVYLQMNSLKPEDTAVYYCAAGGRSRWGRYSPYDYWGQGTQVTVSS”, the “polyreactivity (PSR sort gate)” value is reported as “high polyreactivity”.
Next, “QVQLVESCGALVQASGTLRLSCAASGSIFGYNTMRWYRQAPGKERELVAAIYYSGGRTYYADSVKGRFTISRDNAKNTVYLQMNSLKPEDTAVYNCAARKGYRYYYRGQGTQVTVSS”: “high polyreactivity”; “QVQLVESGGGLVQAGGSLRLSCAASGSTFVVNAMGWYRQAPGKERELVAAIDDGAGDTYYADSVKGRFTISRDNAENTVYLQMNSLKPEDTAVYYCAADTWYQMDYWGQGTQVTVSS”: “low polyreactivity”; “QVQLVESGGGLVQAGGSLRLSCAASGSIFVNNAMGWYRQAPGKERELVAAISSRSSRTFYADSVKGRFTISRDNAKISVYFHMNSLKPVDTGVYYWAVKKRSPHGDYCGQGTQVTVSS”: “high polyreactivity”.
Next, “QVQLVESGGGLVQAGGSLRLSCAASGSIFITYAMVWSRQAPGKERELVAAIRDSGDRTYYADSVKGRFTISRDNAKNTVYLQMNSLKPEDTAVYYCAADYFVQVPDYYYASEYGYWGQGTQVTVSS”: “low polyreactivity”; “QVQLVESGGGLVQAGGSLRLSCAASGSIFSPYDMGWYRQAPGKERELVASITWRRGNTYYADSVKGRFTISRDNAKNTVYLQMNSLKPEDTAVYYCAATRGAQTPQTRKKRGFDYWGQGTQVTVSS”: “low polyreactivity”.
As for “QVQHVESGGGLVQAGGSLRLSCDASGSIFRVYAMGWDRQAPGKERELVAAISRDGSTNYADSVKGRFTISRDNAKNTVYLQMNSLKPEDTAVYYCAAYRTYRGARMNYWGQGTQVTVSS”, the entry is “low polyreactivity”.
